Measurements from patent US20240199727A1 (INVETX, published 2024).
Residue numbers refer to the chain shown, from its start.

B1: canine 2166 chimeric antibody (antibody, V domains shown)
VH: QVQLKESGPGLVQPSQTLSLTCTVSGLSLTSNSVSWIRQPPGKGLEWMGVIWSNGGTDYNSAIESRLSINRDTSKSQVFLKMNSLQPEDTAMYFCASIYYYDADYLHWYFDFWGPGTMVTVSS
VL: DIQMTQSPASLSASLGETVSIECLASEGISNSLAWYQLKPGKSPQFLIYATSSLQDGVPSRFSGSGSGTQYSLKISGMQPEDEGVYYCQQGYKFPLTFGSGTKLKIKR
notes: also called canine chimeric antibody
B2: SC-184_76 (antibody, from a related filing, V domains shown)
VH: DVQLVESGGDLVKPGGSLRLTCVASGLSLTSDSMSWVRQAPGKGLQWVSTLWSNGGTYYTDSVKGRFTISKDNAENTLYLQMNNLKTEDTATYYCASIYYYEADYLHWYFDFWGQGALVTVSS
VL: EIQMTQSPTSLSASVGDRVTITCRASEGIANNLSWYQQTPGKAPKLLIYATSNLHSGVPSRFSGSGSGTDFTLTISSLQPEDFATYYCQQGFKWPLTFGGGTKLEIT
B3: SC-184_110 (antibody, from a related filing, IgG1a, V domains shown)
VH: B2 VH with D32A, L51I, W52Y, D104E
VL: B2 VL with A30S, N31K, S52D, F92W
B4: SC-184_110-Arg (antibody, V domains shown)
VH: B2 VH with D32A, L51I, W52Y, G55R, D104E
VL: B2 VL with A30S, N31K, S52D, F92W
B5: felinized clone 101 (antibody, V domains shown)
VH: B2 VH with D32S, L51I, W52Y, E102D
VL: B2 VL with A30S, F92Y
B6: SC-184_76-Arg (antibody, V domains shown)
VH: B2 VH with G55R
VL: B2 VL
B7: AHF17602 (antibody, V domains shown)
VH: B2 VH with D32S, S35V, L51I, W52Y, G55R, E102D
VL: B2 VL with F92Y

What was measured:
[1] = target: T1, canine NGF tagged at the C-terminus with the Flag tag (canine, UniProt A0A8I3PYI3 122-241); experiment: SPR Biacore T200; antibody captured on protein A chip, NGF analyte
T1 construct: Baculovirus expression
T1 sequence (A0A8I3PYI3 entry or part of it): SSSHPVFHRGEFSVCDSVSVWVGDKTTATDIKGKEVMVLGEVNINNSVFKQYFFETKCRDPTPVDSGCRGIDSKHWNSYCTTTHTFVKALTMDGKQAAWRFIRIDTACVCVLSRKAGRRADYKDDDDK
Description: The running buffer was HBS-EP buffer (10 mM HEPES, pH 7.4, 150 mM NaCl, 3 mM EDTA, 0.005% tween 20) and the instrument temperature was set at 25 °C. […] The binding signals were corrected for the blank and the resulting sensorgram (FIG. 5) was used to determine the rate constants (kₐ and kd) and binding affinity (KD) using a one-to-one binding model with the BIAEVAL software.

[2] = target: canine NGF tagged at the C-terminus with the Flag tag (canine); experiment: SPR, Biacore T200; antibody captured on anti-feline CM5 chip, NGF analyte, 1:1 fit
[3] = target: T2, canine NGF tagged at the C-terminus with the Flag tag (canine, UniProt A0A8I3PYI3 122-241); experiment: SPR competition; Ab pre-incubated with 50 nM NGF at Ab to NGF ratio 5 to 1, injected over captured feline p75 (competitor)
T2 construct: mature; also called feline NGF (processed form identical)
T2 sequence (A0A8I3PYI3 entry or part of it): as above

[4] = target: T2, canine NGF tagged at the C-terminus …; experiment: SPR competition; Ab pre-incubated with 10 nM NGF at Ab to NGF ratio 10 to 1, injected over captured feline TrkA (competitor)
[5] = target: T2, canine NGF tagged at the C-terminus …; experiment: SPR competition; Ab pre-incubated with 50 nM NGF at Ab to NGF ratio 1 to 1, injected over captured feline p75 (competitor)
[6] = target: T2, canine NGF tagged at the C-terminus …; experiment: SPR competition; Ab pre-incubated with 10 nM NGF at Ab to NGF ratio 50 to 1, injected over captured feline TrkA (competitor)

Chain of canine NGF tagged at the C-terminus with the Flag tag (canine) (chain, as listed by the source): as the sequence (A0A8I3PYI3 entry or part of it) above

Binder	koff [1]	Kd [2]	koff [2]	kon [2]	% Block [3]	% Block [4]	% Block [5]	% Block [6]
B1	3.5e-06 s⁻¹							
B2		0.472 nM	0.000396 s⁻¹	838000 M⁻¹ s⁻¹				
B3		0.773 nM	0.00038 s⁻¹	492000 M⁻¹ s⁻¹				
B4					100%	100%	100%	100%
B5					87%	15%	42%	76%
B6					100%	99%	100%	100%
B7					100%	99%	100%	100%
